Experiment: label from the status in PepcDB records

Sequence	protein production
MNAWNTIYDQFNPIAFSLGSIEVHWYGLAYACAIVTAFYMALRMIQKDPKRFPIERKEFESYFLWAELGIVLGARIGYILIYEPNSGYYLTHFWQIFNPFDSHGNFVGIRGMSYHGGLVGFLIASYLYSRKDLKKLLIYLDLIAISLPLGYVFGRIGNFLNQELVGRIVPKDSHLGQIIGIMVDNELRYPSQLIEAFLEGVIVFLMVMWAKKHTKTHGLLIVVYGLGYSLMRFIAEFYREPDSQMGVYFLNLSMGQILSLFMVIVSLGILLYATKNSKKIKENQ	failed
MKRPELIIFDWDGTLFDSVGQIVASLRFAADQFNQPLTDEAAQSIIGLGLPEVMQALFPQVPHLHQEILVHYGEHYVENSKHDAWFEGVAELLHDLKAQGIKLAVATGKSRRGLDRVLNKTQSHELFDITRAASETMSKPHPRMLEEILQVTQVEAQHAIMVGDSSYDLEMAKNIDMPRVGVSYGVHEVDVLQRYEPLTIVDSIAELHHYLTQLLQEKIHA	failed
MSSNECFKCGRSGHWARECPTGGGRGRGMRSRGRGGFTSDRGFQFVSSSLPDICYRCGESGHLAKDCDLQEDACYNCGRGGHIAKDCKEPKREREQCCYNCGKPGHLARDCDHADEQKCYSCGEFGHIQKDCTKVKCYRCGETGHVAINCSKTSEVNCYRCGESGHLARECTIEATA	not failed
MPISNPCFTSFTQPIDGYTLPEKFTFPFCYEPHPLCELAAEELQRHLEAQQEWHHNFGLSGDKSNAIGKMFGVLLVKAPTGEIGYLSAFSGKIADSNHLPYFVPPVFDMLEEDGFFKTELAEITEINATIKQLEANPQLSHLATSIQSETTASLQQIEIQRQVMIEGRKSRKAQRAAAEITAQDGTEKSAEELEQLKVVLGKESVKEKNTLRDIKLIWDEKINALQCQLNELEDALNELKTKRKNLSNGLQKKLFQQYKFLNTHGIEKDLNDIFKDTPNQIPPAGSGECAAPKLLQYAFAHGFTPLALAEFWWGIAPKSEIRQHKKFYASCQSKCQPILGHMLDGIEMDENPLLINPAEGKDLEIVYEDEFMVVVNKPADFLSVPGKNIHDSVYARIQQRYPDATGGLIIHRLDMATSGLLVLGLTPKAHKRLQQQFINRTVEKRYTALLDGVLEQDEGLITLPMRGDLYDRPRQLVCFEHGKPAETTYQVIERKENKTKVYLYPKTGRTHQLRVHCAHYLGLNMPITGDGLYGKKANRLHLHAGYLSLIHPITKEPMEFNVEAEF	not failed
MSNVLIINAMKEFAHSKGALNLTLTNVAADFLRESGHQVKITTVDQGYDIESEIENYLWADTIIYQMPAWWMGEPWILKKYIDEVFTDGHGRLYQSDGRTRSDATKGYGSGGLIQGKTYMLSVTWNAPREAFTDPEQFFHGVGVDGVYLPFHKANQFLGMKPLPTFMCNDVIKQPDIEGDIARYRQHLAENVNS	not failed
GDAHDQQALDYALYHLRIMTPAHGERSSIAAKGLTGEGYKGHVFWDTEVFLLPFHLFSDPTVARSLLRYRWHNLPGAQEKARRNGWQGALFPWESARSGEEETPEFAAINIRTGLRQKVASAQAEHHLVADIAWAVIQYWQTTGDESFIAHEGMALLLETAKFWISRAVRVNDRLEIHDVIGPDEYTEHVNNNAFTSYMVYYNVQQALSIARQFGCSDDAFIHRAEMFLKELRLPEIQPDGVLPQDDSFMTKPAINLAKYKAAAGKQTILLDYSRAEVNEMQILKQADVVMLNYMLPEQFSSASCLANLQFYEPRTIHDSSLSKAIHGIVAARCGLLTQSYQFWREGTEIDLGADPHSCDDGIHAAATGAIWLGAIQGFA	failed
EIILANISDTVFVTDLSGKFTFICSNIDNIFGYSLAEVNAMGTVETLLGDFRFNEYELKEKGELKNLRHDVQDKQGKIHYLLINLKKVAINGGIYLYSCRDISE	failed
MNKKILTLLVLILSISSVLMLSKSITKKSKYKIIRDYFINSNYVLVKIENKDLKFTISKPIYDKKLNNYFFKGQTTSHFLISNNVDIAINTSPYEVKQNMFFPKGLYIYNKKMISKQINNYGEIVIKHNKIILNPKEDEIENCDYGFSGFFVLIKNGKYKKNFKETRHPRTIIGTDKNNKHLFLVTIEGRGVNNSKGASLNEAIDFALSYGMTNAINLDGGGSSTLVVKSNNAPYKLNFTANIFGQERPVPFHLGIKLPN	failed
MSLEWQDLAQLPVSIFKDYVTDAQDAEKPFIWTEVFLREINRSNQEIILHIWPMTKTVILGMLDRELPHLELAKKEIISRGYEPVVRNFGGLAVVADEGILNFSLVIPDVFERKLSISDGYLIMVDFIRSIFSDFYQPIEHFEVETSYCPGKFDLSINGKKFAGLAQRRIKNGIAVSIYLSVCGDQKGRSQMISDFYKIGLGDTGSPIAYPNVDPEIMANLSDLLDCPMTVEDVIDRMLISLKQVGFNDRLLMIRPDLVAEFDRFQAKSMANKGMVSRDEEGHHHHHH	not failed
MSLKARLALFFALSIGLALFFQGALSYVAFKGLLEADLDRSLLFYARALAEGRPSPRGEFAFRLAQGGAETKSPNFPDLPPLAPGRYWKEGWRVWVLEAPGGTLTVARYEPEALLALSRFRLVLFASGAALTLAFALLAGHLAGVALRPLSRLTEVARRVADSQDLSHRVPPEGGGELKTLAEAFNHMLERLEAFLEREKRFTRDAAHELRTPVAAALAQLEAAEGGYLSEGEALQATKEELLRMKRLVEALLVLAREGRVTPVPLDLAALAREEARAFGVPYRGPETLPYEGDPLLLAQALRNLLRNAFLHGEGKGVEVRLSQEGEDLVLEVKDEGPGMPEEALKEAGRPFFRASPKPGEGLGLSVAKKVAEAHGGALVLVPRKPTGLTARLLLPANPRLTGTP	failed
MSRFLTFFLIVFSYALQAQVASLTNAILYRNDGNLIKAKEEIDKAVVNEKTIGMPKTWFYTGLIYKDLYQATPTDLAALTTSTAAFKKVFELEKPAGEFSKKSQEALEQIWAISINNGVNLYQLENYRQAITDFERAQGIKPGDTTAYVYAFYAANELKDQALLEKYSSALVRLNYASEAVYYIDIESLMDKNLLDSAYTVSKKALTNYPSDIALKTQQTELMVKMNKTQEAIENLKVLSTKNPKDVQLLINIGSQYTNLNDEPHAAEYYQKALAIDSVNFNANYNMAVFSLRKANEISKQIVVSDNNLKKSFKAIPTVATDPLRQNLQKELAVSTKYYNRAVLGAKDEEAKKNVKTLQDNITSFEDQFLK	failed
MISSKNGAAMISRPVFLSDRVDEVFSRKLDLSVSSSSSSSLLQQFNKTHEGDDDARLALAHQLYKGGDFKQALEHSNMVYQRNPLRTDNLLLIGAIYYQLQEYDMCIARNEEALRIQPQFAECYGNMANAWKEKGDTDRAIRYYLIAIELRPNFADAWSNLASAYMRKGRLSEATQCCQQALSLNPLLVDAHSNLGNLMKAQGLIHEAYSCYLEAVRIQPTFAIAWSNLAGLFMESGDLNRALQYYKEAVKLKPAFPDAYLNLGNVYKALGRPTEAIMCYQHALQMRPNSAMAFGNIASIYYEQGQLDLAIRHYKQALSRDPRFLEAYNNLGNALKDIGRVDEAVRCYNQCLALQPNHPQAMANLGNIYMEWNMMGPASSLFKATLAVTTGLSAPFNNLAIIYKQQGNYSDAISCYNEVLRIDPLAADALVNRGNTYKEIGRVTEAIQDYMHAINFRPTMAEAHANLASAYKDSGHVEAAITSYKQALLLRPDFPEATCNLLHTLQCVCCWEDRSKMFAEVESIIRRQINMSVLPSVQPFHAIAYPIDPILALEISRKYAAHCSIIASRFGLPPFTHPAGLPVKREGGFKRLRIGYVSSDFGNHPLSHLMGSVFGMHNRENVEVFCYALSANDNTEWRQRIQSEAEHFLDVSAMSSDAIAKIINQDKIQILINLNGYTKGARNEIFAMQPAPIQVSYMGFPGTTGATYIDYLVTDEFVSPLQYAHIYSEKLVHLPHCYFVNDYKQKNQDVLDPNSKPKRSDYGLPEDKFIFACFNQLYKMDPEIVNTWCNILKRVPNSALWLLRFPAAGEMRFRTYAAAQGVQPDQIIFTDVAMKSEHIRRSVLADVILDTPLCNGHTTGTDVLWAGVPMITLPLEKMATRVAGSLCLATGLGHGMIVNSLEEYEEKAVSLALNKPKLQALTKELRASRLTCPLFDTMRWVKNLERSYFKMWNLHCSGQQPQHFKVLENDLEFPHDR	failed
MMNDRFTRIKWLVGEEKFQKISQTKVLVCGLGGVGGICVDALYRSGFKNLTLIDADKFEITNQNRQIHSENIGEEKAKVFERIYKVKGIVSKIDENFLKNFDLSEFDLIIDAIDDIPAKVALAHLIDFKKQIFISSTGGARKLDPTRIKTTSIFKTHGDALAKKFRYELRKSGFKGNFDVVFSDEEAHCKDLGSFMGVTASFGLALASLALRKVLAKKS	failed
MATLPAAETWIDGGGGVGADAVNLTASLAAGAATGAVETGWLQLLDQAGNLSSSPSALGLPVASPAPSQPWANLTNQFVQPSWRIALWSLAYGVVVAVAVLGNLIVIWIILAHKRMRTVTNYFLVNLAFSDASMAAFNTLVNFIYALHSEWYFGANYCRFQNFFPITAVFASIYSMTAIAVDRYMAIIDPLKPRLSATATKIVIGSIWILAFLLAFPQCLYSKTKVMPGRTLCFVQWPEGPKQHFTYHIIVIILVYCFPLLIMGITYTIVGITLWGGEIPGDTCDKYHEQLKAKRKVVKMMIIVVMTFAICWLPYHIYFILTAIYQQLNRWKYIQQVYLASFWLAMSSTMYNPIIYCCLNKRFRAGFKRAFRWCPFIKVSSYDELELKTTRFHPNRQSSMYTVTRMESMTVVFDPNDADTTRSSRKKRATPRDPSFNGCSRRNSKSASATSSFISSPYTSVDEYS	failed
MSNKRKLWQIFGPVLCAFILLIILFLIPWQNGEKSDNALFKASVSQSQTVFKGQSIKQAAFEKNYVPFYGSSELSRMDALHPSVLAYKYKRNYRPFLLGGPGSQSLTHFFTMQETVNQLSNKKAVFIISPQWFTKQGQNPAAFGMYFSQLQAVDWILTAKDSVATRYAARRLLDMPAGTASETTKYALMTLASGQKLSKYQTLYLKARRRMLANEDNFFSSIGMTNNIPKIQKEAGKLPGTYAYDNLRQFANEQGQQGTTNNKFGISNGFFDKKLNNKHLKHLKNSQRDFDYTQSPEYADFELVLNELAHEHVNVLFIIPPVNEKWAKYTGLSQTMYQECVAKITKQLTSQGFNNIANLSKDGGKKFFMEDTIHLGWNGWLKVDQYVKPFMEEKNHPVNYKLNSYYFTKAWGNKTNVKMPNVKSKAAVDIKKN	failed
MVSSLFINPFSEDAREIVRKYGSLDTIDDTRDELLEIGRRTRGQNLADNSLLPASIAELAVKRLEWYLRRQRKDFNHRDYAYLMNPEIEEYDVLAFYILAQAAGAGFMKASREARLVVESAGAMVEDRLNVFGGEREEIMAEVLYELGSEGLRWTELADLLGSGKLKLTDLILKEGRVIIDRDEFITSFQDSIRDRSPDRLYDILVGLEVRETMISRMIMQRTEEYIGMVREMSSTVEVHPLILETAERIRETVEEIMSFTGGPVKSARPGKLVQEAFPPCIRGTLDGVRSGNRNDAIVLLLTSFISYARLYPSVFRDRTPMKVSDLDPDLRITLGEILPVIYDAADRCEPPLFEDDPQEKLNITAKLGFGVHDMPELENEGESKWYTPMSCEKIKIHLPDLCRPDKLCSSISNPLTYYNRKRWKLRSSGEKEELEHHHHHH	not failed
MCDKDIYNNKEMIILNKQQVTKAIEKVLNSSKIGVLSTAHHNKPNSRYMVFYNDDLNLYTKTNVNSLKVEEIENNPDAHILLGYNETTNNSFVEIDATIEVVKDQKVIDWLWETQDKTFFNSKEDPELCVLKVIPRSIKLMNDDELDTPATIEL	not failed
MSHRRDYGSDAVHVRITHDPPPENCFPNSGDSSVWATEDDYSRVWAINSDGAESPSKKTRSSSSSEIGKSFFKTKLCFKFRAGTCPYSASSCHFAHSAEELRLPPPPPPNWQETVTEASRNRESFAVSLGPRGNVAQTLKSPNWKTRICNKWQTTGYCPFGSHCHFAHGPSGKATAFFIY	failed

From a protein production outcome set (Wang et al. 2014)
